Substrate: C/C=C1/[C@H](O[C@@H]2O[C@H](CO)[C@@H](O)[C@H](O)[C@H]2O)OC=C(C(=O)OC)[C@H]1CC(=O)OCCc1ccc(O)c(O)c1
Experiment: HPLC determination of hydrolysed oleuropein
Type: biochemical, Olea europaea
Details: free purified recombinant enzyme; standard assay

B1: OepGLU (recombinant olive β-glucosidase) (Olea europaea) (protein)
chain: MDIQSNVLTITSGSSPTDTSSNGQAAKSTKERIKRSDFPSDFVFGAATASYQVEGAWNEGGKGMSNWDYFTQSQPGGISDFSNGTIAIDHFNMFKDDVVVMKKLGLKAYRFSLSWPRILPGGRLCHGVSKEGVQFYNDLIDALLAADIEPYITIFHWDIPQCLQLEYGGFLHERVVQDFIEYSEICFWEFGDRVKYWITLNEPWSFTVQGYVAGAFPPNRGVTPKDTEETKKHARLHRGGGKLLTAFKYGNPGTEPYKVAHNLILCHAHAVDIYRTKYQESQGGKIGITNCISWNEPLTDSQEDKDAATRGNDFMLGWFVEPVVTGEYPESMIKNVGDRLPKFSEKEEKLVKGSYDFLGINYYTSTYTSDDPTKPTTDSYLTDSRTKTSHERNKVPIGAQAGSDWLYIVPWGIYRVMVDMKKRYNDPVIYITENGVDEVNDKSKTSTEALKDDIRIHYHQEHLYYLKLAMDQGVNLKGYFIWSLFDNFEWAAGFSVRFGVMYVDYANGRYTRLPKRSAVWWRNFLTKPTAVPLKNEPEKSEDRRKRLRGST
Km: 26.8 mM

Reference: PMC5682033, “An Oleuropein β-Glucosidase from Olive Fruit Is Involved in Determining the Phenolic Composition of Virgin Olive Oil” (Frontiers in Plant Science, 2017)
